In patent US20170240596A1 one finds Kd data, which are given here for one molecule.

This assay deals with Prostate-specific membrane antigen (PSMA) (human), Q04609. Put plainly: apparent Kd, flow cytometry, FAM-labeled peptide on PSMA-positive LNCaP cells, 4 C. The following applies: remark: other sources report otherwise. In general terms: Flow cytometry measures light scatter and fluorescence of single cells or particles in a stream.

No end group written: not given here.

Chain of Prostate-specific membrane antigen (PSMA) (human), Q04609 (Q04609 whole entry): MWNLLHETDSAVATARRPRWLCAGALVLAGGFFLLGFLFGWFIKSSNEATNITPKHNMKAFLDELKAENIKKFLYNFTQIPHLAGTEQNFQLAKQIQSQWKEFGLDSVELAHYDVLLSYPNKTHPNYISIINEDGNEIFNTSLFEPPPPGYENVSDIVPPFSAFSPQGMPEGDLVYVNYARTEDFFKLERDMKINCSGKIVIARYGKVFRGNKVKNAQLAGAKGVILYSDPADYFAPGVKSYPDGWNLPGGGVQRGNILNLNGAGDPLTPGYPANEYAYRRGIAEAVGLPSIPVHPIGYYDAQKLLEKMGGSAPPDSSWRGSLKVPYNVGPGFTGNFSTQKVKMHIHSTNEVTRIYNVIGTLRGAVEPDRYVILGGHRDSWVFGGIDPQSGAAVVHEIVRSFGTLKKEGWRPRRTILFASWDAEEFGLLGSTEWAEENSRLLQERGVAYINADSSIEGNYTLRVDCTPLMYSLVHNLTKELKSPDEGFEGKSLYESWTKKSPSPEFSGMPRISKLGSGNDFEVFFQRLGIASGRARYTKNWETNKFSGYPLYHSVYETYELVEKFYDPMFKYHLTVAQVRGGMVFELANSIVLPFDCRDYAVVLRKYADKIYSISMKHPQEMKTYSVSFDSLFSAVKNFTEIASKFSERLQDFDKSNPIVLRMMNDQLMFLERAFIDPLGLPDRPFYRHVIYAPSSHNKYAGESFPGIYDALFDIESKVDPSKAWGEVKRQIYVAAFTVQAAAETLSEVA

Regarding WQPDTAHHWATL (also: FAM label, position not given here) [FAM-labeled WQP peptide …], the Kd was 23.6 µM.
